The nature of the data set: soluble on expression in E. coli; label from the status in PepcDB or PDB records.
For the sequence “MGSDKIHHHHHHMDAFEKVRTRLETQPQEEYEVVNAEIKHGGFVYYQEGCCLVRSKDEEADSDNYEVLFNLEELKLDQPFIDCIRVAPDEKYVAAKIRTEDSETSTLVVVKLSDQPVMEASFPNVSSFEWVKDEEDEDVLFYTFQRNLRCHDVYRATFGDNKRNERFYTEKDPSYFVFLYLTKDSRFLTLNIMNKTTSEVWLIDGLSPWDPPVLIQKRIHGMLYYVEHRDDELYILTNVGEPTEFKLMRTAADAPAIMNWDLFFTMKRNTKVVDLDMFKDHCVLFLKHSNLLYVNVIGLADDSVRSLKLPPWACGFIMDTNSDPKNCPFQLCSPIRPPKYYTYKFAEGKLFEETGHEDPITKTSRVLRIEAKSKDGKLVPMTVFHKTDSEDLQRKPLLVHVYGAYGMDLKMNFRPEKRVLVDDGWILAYCHVRGGGELGLQWHADGRLTKKLNGLADLVACIKTLHSQGFSQPSLTTLSAFSAGGVLVGALCNSKPELLRAVTLEAPFLDVLNTMLDTTLPLTLEELEEWGNPSSDEKHKNYIKRYCPCQNIKPQHYPSVHITAYENDERVPLKGIVNYTEKLKEAVAEHTKGAGEGYQPPNIILDIQPGGNHVIEDSHKKITTQMKFLYEELGLDSTDAFEALKKYLKF”, the “soluble on expression in E. coli” value is listed as “soluble”. Next, “MGSDKIHHHHHHMDAKTIDNRIRRAFNGIRQAFRGKIARVKAAGGVQQIQVEGLEGETVQDLEHAENFGFTSNPPAGSDCVVVPLGGKTSHGIIVTTTNGAYRITGLAEGETAVYNADGAKMVLKKGRIIEIDCETLNIKAPGGVNIDAPNVGCTAQITAEGQINGNGGMAVKGGSGTSFTGNVQMVGDLDTTGKLTNNGKNVGSDHKHNGDSGGTTSDPL”: “not soluble”. As for “MGSDKIHHHHHHMDAPSTTPHDAVFKQFLMHAETARDFLEIHLPVELRELCDLNTLHLESGSFIEESLKGHSTDVLYSVQMQGNPGYLHVVIEHQSKPDKKMAFRMMRYSIAAMHRHLEADHDKLPLVVPILFYQGEATPYPLSMCWFDMFYSPELARRVYNSPFPLVDITITPDDEIMQHRRIAILELLQKHIRQRDLMLLLEQLVTLIDEGYTSGSQLVAMQNYMLQRGHTEQADLFYGVLRDRETGGESMMTLAQWFEEKGIEKGIQQGRQEVSQEFAQRLLSKGMSREDVAEMANLPLAEIDKVINLI”, the “soluble on expression in E. coli” value is “not soluble”. For “MGSDKIHHHHHHMDDITPSDIQAQAIAAIRDWFHSRTDEQQVFRLFGFAGTGKSTVLKFALDDLGLSPHAEDRPGVVTATFTGKAALVLRRKGTPARTIHSLIYSVIEATDEEIEEAGKRITQAELNARGLIGFDRTAAEAAIEAMRQTLRDMKKPRFALNPDSPAASAKLIVLDEVSMVGDEMARDLMSFERPILVLGDPGQLPPIKGEGAFTQAAPDIMLTEIHRQAAESAIIRLATMAREGQPIGFGQYDDHAWKMRMADVTPQQALRGGQVICGRNTTRFQLNNALRRAAGFGGSYLPTGADEKVICLKNQNDLGLINGMFLTLADIVDEGSVYFSATVTDEVGTPIGPPAKDGKPGRLMLYKGHFEDHVALDPHRHDRDWRDKKKLTEATFGWAITCHKAQGSQWENVIVWDDGLGRTEQDRRRWLYTAITRAERGLVILA”, the “soluble on expression in E. coli” value was “not soluble”. Consider “MGSDKIHHHHHHMDFFQSKFLYGKKQSQFGIFRMPRNTTNCPVVVTIHGGFWKAEYGLEEIVPLDEDLVRRGYATWNVEYRRIGENGGGWPGTFSDVIDAVNYLAFLKEDFPLDLSRVVILGHSAGGHLALWLASRWNTKQADQMENVLHTSIKAIISLAGVSNLEEMWRIESKGKTSNNVSSFLGGTPEEASDRYHLASPYELLPLHVRQILVHGGSDQEVPLDLTLGYYKKAIRLADDVGLISDSRSDHFDLIDPFSSIWLSSADSLKNIINS”, for which the “soluble on expression in E. coli” value is “not soluble”. For “MGSDKIHHHHHHMDFLDFEKVFSFYSKATKKGFSPFFVPALEKAEEPAGNFFLDRKGNLFSIREDFTKTVLNHRKRYSPDSQIKVWYADFVYRYSGSDLVAEYQLGLEKVPRNSLDDSLEVLEIIVESASEFFEGPVIVEIGHTGVYEDLLKEIPKDLHEKVLNLIDTKNLAEIEFLSHMKKIDLSRVEKIIEDSIYRRSPEHLKTMDLPLSVREDLLSASSFLQEKFPTVSVEIDLTLARTIEEYCGLIFTIYDTSSSRLVAAGGEYTVNGEKGVGGSIFLEGKTC”, the “soluble on expression in E. coli” value is given as “not soluble”. With “MGSDKIHHHHHHMDFWKCPHCGFVVSKTHQEMTQDQWSQLNSSWHHNFENNRESRTTNQPPYADQALVLAILKENDILDLDDGLDYAAGYGTFSKCLKKYFNIGIRIFDRYVHSSDEGMRYVAQKELSRYKLVINSAMFEHVLNRHALDEVNGLVKDDGVLMLHTVVCERIPKDPGWFYIDTMVHTALHTNKSMSILMDQWGYGASIYSPQAKSWFLFKRDNPLIDDLEAKVAGINHELQTTYLHYKRGFVDYWKGF”, the “soluble on expression in E. coli” value was “not soluble”.

(Values after the DeepSol protein solubility set.)
